Test results as given in the DeepSol protein solubility set.

Assay: soluble on expression in E. coli; label from the status in PepcDB or PDB records

Row | Sequence | soluble on expression in E. coli
1 | MKLYIGNKNYSSWSLRAWLMVKKSGIKFDEILLQLDTDSFYQQLQSISPTLKVPTLVDGDITVWDSLSICEYINDSYLSGTAWPQDPKQKAKARSLACEMHSGFNALRNALPMNIRARRYVELSPAVQQDIARVDSIWSQQMAEFAPCQTQGTWLFGQWSIADMMFAPVVMRFFTYEIEVSQASRAYMEYIMSQPQMQAWITAAKAETEIVEADEAGVDR | not soluble
2 | MAVQLLENWLLKEQEKIQTKYRHLNHISVVEPNILFIGDSIVEYYPLQELFGTSKTIVNRGIRGYQTGLLLENLDAHLYGGAVDKIFLLIGTNDIGKDVPVNEALNNLEAIIQSVARDYPLTEIKLLSILPVNEREEYQQAVYIRSNEKIQNWNQAYQELASAYMQVEFVPVFDCLTDQAGQLKKEYTTDGLHLSIAGYQALSKSLKDYLY | soluble
3 | MLRTICKQHTALPDKSIRKLEKIAEGLTVLSKLLKADIFIDCPTGINDAAIVVAEANPETGSSYTQSVVGQYAYRKNEPAVLRTLETGLPSRDYKALTQENTLVRQNVVPIKNEKEEVIGVLIVEEGSNDTGLNKELNFLHDATNELLRSSMEMTKEQKIIDYINDGIIIFNEKGILIYANSKAKNIYKKIGYKHNILGTKFSNIVLNNIAFKDVLDGIIPGSSDIHIAKMDLNIHYYLIKESKNVKNVVLFIKDLTEIKEKEKELILKSVAIKEIHHRVKNNLQTIASLLRIQARKTEDEAVRQAFNESINRILSIAVTHEILAQNGLDDLKIKEMFSKILKNSIRASIGENLDLKTSISGDDFKINSDKSTSIALIANELVQNSITHGFKGMTSGKIDITVKQGKIKSKVTIADNGVGFKSKDFKNESLGLQIVKSLVKEKLFGTIDIKSTKNGTIIVFDFEN | not soluble
4 | MSEQSFSNANKGSETLNGSAASFVSHKRFYDDTNFPKGFKRSGDFTSKEAELLELHGHAMKNLAEGKTLPVTADEAQFVEVIKGNIAPSSLLEHIWLKYRKLARGKPFYAVVGTVHLPATKPEVEVEPEAAFDVDVEIEDDVQDEAEPEDKA | soluble
5 | MEQPKYKRVVLKLSGEALAGKQGFGIQPAVIQSIAKQVKEVVELGVEVAIVVGGGNIWRGKTGSEMGMDRATADYMGMLATVMNALALQDSLEQLGVETRVQTSIEMRQVAEPYIRRRAIRHLEKKRVVIFAAGTGNPYFSTDTTAALRAAEIEADVILMAKNNVDGVYSADPNVDANALKYDELSYLDVIKQGLGVMDSTASSLCMDNNIPLIVFSIMEEGNIKRAVLGENIGTIVRGK | not soluble
6 | MLDLRFQRLHGKTTLTTRHHVGLLTVQRPFYPEEETCHLCLLHPPGGIVGGDELIINAIIDSDCHTLITMPGASKFYRSSGAQAHLQQNLTLCNNATLEWLPQDSIFFPGAHATLHTVFHLSSSSTLLAWDLLCLGRPVIGETFSHGTLANRLEIWVDGSPLLIERLHVANGELTCVARKPWVGTMLFYLGNETQLEDIREKLTPLENYAGATLTDGLLTVRFLSDDNLRCQ | not soluble
7 | MTVASLRGRTGTPVPKREVELRATWSSECVTRPMTEEERIKYGVAIPPKITNADGVQERRPILLPKKSKYAHVTKELVLTEFAKGKTAVQIEREQGMKPNTLYARLRAWGIRSPHSPKLRNETAAPPPSSSDTHRTDNRIDDIFWDVQIELRRAMSRFPRFNSAHEGYAVVLEELDEAWQAIKANDLIHARLGNDAGGRDGDPFPARPSDRRKGGGTATMTKAERSKSKRTATERTKLAIAPNPNRCFVLFSSTYLTAGSAIVSLNSLVRQLEKHPADHPIEDIRLDREALLMEILFVPEGGDPHAKHRSGPDQGI | not soluble
8 | MSLFKEERTMTNYTVDTLNLGKFITESGEVIDNLRLRYEHVGYHGQPLVVVCHALTGNHLTYGTDDYPGWWREIIDGGYIPIHDYQFLTFDVIGSPFGSSSPLNDPHFPKKLTLRDIVRANERGIQALGYDKINILIGGSLGGMQAMELLYNQQFEVDKAIILAATSRTSSYSRAFNEIARQAIHLGGKEGLSIARQLGFLTYRSSKSYDERFTPDEVVAYQQHQGNKFKEHFDLNCYLTLLDVLDSHNIDRGRTDVTHIFKNLETKVLTMGFIDDLLYPDDQVRALGERFKYHRHFFVPDNVGHDGFLLNFSTWAPNLYHFLNLKHFKRKEGHHHHHH | soluble
9 | MAHHHHHHMPRSIRVRHGDPDVAEGALTIEVPSSPDADNKAVGDARTPVASLGASSAFFTTYSTVSGDVAHPCANIASGAAPSDEVSPLTSALFMSVDSTPLASSCATKTAASLVNVRSFNSSATVVSVELPNLQSEHAAMTATSCFATRSRDTEAPAAAAAASATNPPPLRHPLGSAPIEGGGGQTQLAGEADTPVQDRTAAPSSSPLMAKASVSASFSGDSSKRCSHTVQSGLSDDLQLTQTTCYLPLLGSAGSREVQRSGDDIDARWVAERESVPAAEPARTTVGNDSFPAEGSEGAMVATTQSASTDVRAAACTVPASNISNTVAATATDVAAPLCPKFEVLATVPAPLVGRVPIRIHWCCAAHWRAVQRTERGAQWAVDGAPADVYCVPAHRNAKRERRSLSASCVEAKSESERGGRSFSGTGENTAWLRDAAGEVKPQHWEVRALSSAVGAPGSTLYDDSNYDAEHEKHGSLKTRSGLPHVHSHSCTDMLTCEFCGHAVERYHSEDCDDEASEASTSMTQTGRACSAPPGRFQDCHGCASAEARSLSSSKIVAFRSNQPSILTPQLLLSSSESAETTVDLDMSGAISSVDVPSWSDSAREEALMAAVALLQ | not soluble
10 | MSLKPTDLNLIPIFIAIYEERNLSRAAARLDITQPAVSKALARLRDIYDEPLFHRSSSGVEPTSFAVDIYPAMVAAIKNFTSTLSASVEFDPKVSNRIFSIACVSILSYELLPQLMKQIHELAPNIALEVHPLFTEDYESDLRLQRYDLIIDLAPRGRTVLKVEPVITERLMVVCNKDHPRIAESISQEQFFEEEHVAVSQWQSRKSMLSAEDIVDLDKRKIMYRAAGALEMLPVICGSEYIGLMPESMIKLFSNTYHVKALPFPFDVTTYDLCTIWHPSRTNESAHQWLRAQIKHAGKVIKEGHHHHHH | soluble
11 | MTLYVNLAELLGSRIENGFYRPGDRLPSVRALSVEHGVSLSTVQQAYRVLEDSGLAAPKPKSGYFVSVSRHAPALPAVGRPAQRPVDISQWDQVLDLIRVAPREAVTQLGRGMPDVTSPTLKPLMRALGQLSRHQDMPGLYYDNIYGVLRLREQVARLMLDSGCNLTANDVIITNGCHEALSASVRAICSPGDIVAVDSPSFFGAMQTLKGVGMKALEIPTDPLTGISLEALELALEQWPIKVIQLTPNCNNPLGYVMPEARKRALLTLAQRFDVAIIEDDVYGDLAYNYPRPRTIKSFDEDGRVLLCSSFSKTLAPGLRIGWVAPGRYLERVLHMKYIGTGSTAPQPQLAIADFLEGGHYEPHVRRMRTQYQRSRDQMIDWVMRYFPEGTRASRPQGSFMLWVELAEDFDTLRLNRALLDKGVQIAVGSIFSASGKYRNCMRLNYAAKSSREIESAVRIVGETIAQLIAQSD | not soluble
12 | TNGFLKILGLGSGHDDKDKLSSEELRTVVHEAGGLIPRRHQDMLISILDLEHVTVNDIMVPRSEITGIDINDDWKSISRQLTHSPHGRIVLYRDQIDEVVGMLRLRESYRLMLEKNEFTKETLLRAADEIYFIPEATPLNSQLLKFQRNKERIGLVVDEYGDIQGLITLEDILEEIVGEFT | not soluble
13 | MGSDKIHHHHHHVVAVNRAVFLDRDGVINKDHGYVHQVDDFEYIEGVFEACLALKKMGYKLVVVTNQSGIARGMYSEDQFHSLTEWMDWNFADKGVDLDGIYYCPHHAEKGMGEYKVDCDCRKPKPGMLNDAAKFLKVDLSQSVMVGDKADDMQAAKAAGVPTRILVRSGKVIADSSDATIVLDSIADVPDYLKA | not soluble
14 | MDGDIIDQYRFPSPHPGIDVFFVTYMSQGLKVKGFLAAPKRKGVYDGFLYLRGGIKNVGQVRVPRLVQFASQGFVVFAPLYRGNGGGEGNEDFAGDDRYDALAGFHLLRRHPLVHPGRVHMFGFSRGGAMALHAAVMAEGVCSVAVWGGVADLELTYWERPDLRRMMKRVIGGTPNKCPERYRHRTPLYHLERLKAPVLIIHGGRDENVSIEHAWRLERRLKQLGKPVTAWYFPEFTHYFPPQANRETVQRLTEWMKQQPTM | not soluble
